Test results as given in patent publication US20230183352A1 (published 2023).

Columns and labels:
[1] = target: T1, Claudin 18.2 (CLDN18.2), expressed on CHOS-CLDN 18.2 / HEK293-CLDN 18.2 / HCC827-CLDN 18.2 cells (human, UniProt P56856-2 1-261); assay: FACS, CHOS-CLDN18.2 cells, 0 µg/ml (background)
T1 construct: whole, on cells; The species is not repeated for the CHOS-CLDN 18.2 cells; also called claudin-18A2
Protocol: (§1) The initial concentration of the antibody was 20 μg/ml, it was diluted at 1:4, and incubated at 4° C. for 60 min.

[2] = target: T1, Claudin 18.2 (CLDN18.2), expressed on …; assay: FACS, CHOS-CLDN18.2 cells, 5 µg/ml
Protocol: as §1

[3] = target: T1, Claudin 18.2 (CLDN18.2), expressed on …; assay: FACS, CHOS-CLDN18.2 cells, 10 µg/ml
Protocol: The initial concentration of the antibody was 20 μg/mkit was diluted at 1:4, and incubated at 4° C. for 60 min.

[4] = target: T1, Claudin 18.2 (CLDN18.2), expressed on …; assay: FACS, CHOS-CLDN18.2 cells, 5 µg/ml; remark: listed apart in the source
Protocol: as §1

[5] = target: T1, Claudin 18.2 (CLDN18.2), expressed on …; assay: FACS, CHOS-CLDN18.2 cells
Protocol: as §1

[6] = target: T1, Claudin 18.2 (CLDN18.2), expressed on …; assay: FACS, CHOS-CLDN18.2 cells, 0 µg/ml (background); remark: listed apart in the source
Protocol: as §1

[7] = target: T1, Claudin 18.2 (CLDN18.2), expressed on …; assay: FACS, CHOS-CLDN18.2 cells, 0.313 µg/ml
Protocol: as §1

[8] = target: T1, Claudin 18.2 (CLDN18.2), expressed on …; assay: FACS, CHOS-CLDN18.2 cells, 0.078 µg/ml
Protocol: as §1

[9] = target: T1, Claudin 18.2 (CLDN18.2), expressed on …; assay: FACS, CHOS-CLDN18.2 cells, 0.020 µg/ml
Protocol: as §1

[10] = target: T1, Claudin 18.2 (CLDN18.2), expressed on …; assay: FACS, CHOS-CLDN18.2 cells, 0.313 µg/ml; remark: listed apart in the source
Protocol: as §1

[11] = target: T1, Claudin 18.2 (CLDN18.2), expressed on …; assay: FACS, CHOS-CLDN18.2 cells, 0.078 µg/ml; remark: listed apart in the source
Protocol: as §1

[12] = target: T1, Claudin 18.2 (CLDN18.2), expressed on …; assay: FACS, CHOS-CLDN18.2 cells, 0.020 µg/ml; remark: listed apart in the source
Protocol: as §1

FACS reading [1]: 732
FACS reading [2]: 105000
MFI [3]: 145000
FACS reading [4]: 105000
EC50 [5]: 0.27 µg/mL
max [5]: 88600
FACS reading [6]: 732
FACS reading [7]: 51000
FACS reading [8]: 18200
FACS reading [9]: 6950
FACS reading [10]: 51000
FACS reading [11]: 18200
FACS reading [12]: 6950
B1: QP024025 (antibody, human IgG1, V domains shown)
VH: QVQLQQPGAELVRPGASVKLSCKASGYTFTSYWINWVKQRPGQGLEWIGNIYPSDSYTNYNQKFKDKATLTVDKSSSTAYMQLSSPTSEDSAVYYCTRSWRGNSFDYWGQGTTLTVSS
VL: DIVMTQSPSSLTVTAGEKVTMSCKSSQSLLNSGNQKNYLTWYQQKPGQPPKLLIYWASTRESGVPDRFTGSGSGTDFTLTISSVQAEDLAVYYCQNDYSYPFTFGSGTKLEIK
notes: also called IMAB362; 175D10(IMAB362)
